Measured values taken from paper PMC10397247.

Experiments:
Assay in all cases: two-hybrid library CCNG1;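 note: natural log of median RNA to DNA barcode read ratio; higher means stronger binding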
4H331-bA = biological target: T1, 4H331-bA
T1 chain: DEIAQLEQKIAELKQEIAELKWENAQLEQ

4H953-bA = biological target: T2, 4H953-bA
T2 chain: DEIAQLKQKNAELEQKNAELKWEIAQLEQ

4H3855-bA = biological target: T3, 4H3855-bA
T3 chain: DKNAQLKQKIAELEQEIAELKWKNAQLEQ

4H607-bA = biological target: T4, 4H607-bA
T4 chain: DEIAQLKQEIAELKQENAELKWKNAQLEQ

4H3843-bA = biological target: T5, 4H3843-bA
T5 chain: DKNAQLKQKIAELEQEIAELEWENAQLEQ

4H370-bA = biological target: T6, 4H370-bA
T6 chain: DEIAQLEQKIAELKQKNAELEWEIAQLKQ

4H3189-bA = biological target: T7, 4H3189-bA
T7 chain: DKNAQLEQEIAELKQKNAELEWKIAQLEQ

4H2576-bA = biological target: T8, 4H2576-bA
T8 chain: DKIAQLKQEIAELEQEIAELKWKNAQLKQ

4H918-bA = biological target: T9, 4H918-bA
T9 chain: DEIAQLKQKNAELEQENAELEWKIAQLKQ

4H1845-bA = biological target: T10, 4H1845-bA
T10 chain: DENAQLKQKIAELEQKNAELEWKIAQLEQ

4H1446-bA = biological target: T11, 4H1446-bA
T11 chain: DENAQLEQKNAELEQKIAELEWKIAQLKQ

4H2610-bA = biological target: T12, 4H2610-bA
T12 chain: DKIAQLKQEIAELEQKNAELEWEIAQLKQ

4H2667-bA = biological target: T13, 4H2667-bA
T13 chain: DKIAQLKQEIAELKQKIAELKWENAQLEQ

4H687-bA = biological target: T14, 4H687-bA
T14 chain: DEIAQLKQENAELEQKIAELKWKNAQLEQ

4H797-bA = biological target: T15, 4H797-bA
T15 chain: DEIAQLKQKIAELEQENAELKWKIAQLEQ

4H4001-bA = biological target: T16, 4H4001-bA
T16 chain: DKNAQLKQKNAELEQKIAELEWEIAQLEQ

4H568-bA = biological target: T17, 4H568-bA
T17 chain: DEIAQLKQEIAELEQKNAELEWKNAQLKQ

4H883-bA = biological target: T18, 4H883-bA
T18 chain: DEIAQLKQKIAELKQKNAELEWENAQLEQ

4H967-bA = biological target: T19, 4H967-bA
T19 chain: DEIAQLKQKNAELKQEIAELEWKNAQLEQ

4H1369-bA = biological target: T20, 4H1369-bA
T20 chain: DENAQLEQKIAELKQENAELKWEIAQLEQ

4H72-bA = biological target: T21, 4H72-bA
T21 chain: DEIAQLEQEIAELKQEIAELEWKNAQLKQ

4H462-bA = biological target: T22, 4H462-bA
T22 chain: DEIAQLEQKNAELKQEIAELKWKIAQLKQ

4H3606-bA = biological target: T23, 4H3606-bA
T23 chain: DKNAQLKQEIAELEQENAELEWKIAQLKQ

4H2697-bA = biological target: T24, 4H2697-bA
T24 chain: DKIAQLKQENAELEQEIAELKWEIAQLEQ

4H3782-bA = biological target: T25, 4H3782-bA
T25 chain: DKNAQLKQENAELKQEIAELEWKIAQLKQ

4H570-bN = biological target: T26, 4H570-bN
T26 chain: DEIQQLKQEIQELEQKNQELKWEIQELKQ

P11A-bA = biological target: T27, P11A-bA
T27 chain: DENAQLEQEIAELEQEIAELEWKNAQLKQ

P7A-bA = biological target: T28, P7A-bA
T28 chain: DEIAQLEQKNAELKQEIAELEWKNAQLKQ

P5A-bA = biological target: T29, P5A-bA
T29 chain: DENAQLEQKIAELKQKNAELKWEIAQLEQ

P6A-bA = biological target: T30, P6A-bA
T30 chain: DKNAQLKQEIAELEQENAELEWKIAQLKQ

P1A-bA = biological target: T31, P1A-bA
T31 chain: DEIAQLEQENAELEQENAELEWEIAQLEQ

P3A-bA = biological target: T32, P3A-bA
T32 chain: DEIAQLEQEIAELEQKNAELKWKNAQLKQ

P4A-bA = biological target: T33, P4A-bA
T33 chain: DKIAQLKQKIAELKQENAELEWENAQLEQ

P8A-bA = biological target: T34, P8A-bA
T34 chain: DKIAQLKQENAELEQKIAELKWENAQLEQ

P12A-bA = biological target: T35, P12A-bA
T35 chain: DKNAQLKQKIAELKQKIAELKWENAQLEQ

P2A-bA = biological target: T36, P2A-bA
T36 chain: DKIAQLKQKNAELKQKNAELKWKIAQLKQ

P9A-bA = biological target: T37, P9A-bA
T37 chain: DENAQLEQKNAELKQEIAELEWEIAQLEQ

B1: 4H1369-bA (peptide)
chain: DENAQLEQKIAELKQENAELKWEIAQLEQ
Work on B1 yielded an interaction score (4H331-bA) of -0.963, an interaction score (4H953-bA) of -1.23 and an interaction score (4H3855-bA) of -1.08. The interaction score (4H607-bA) was -1.2, the interaction score (4H3843-bA) was -0.634 and the interaction score (4H370-bA) was -1.03. It also gave an interaction score (4H3189-bA) of -0.843, an interaction score (4H2576-bA) of -0.209 and an interaction score (4H918-bA) of -1.28. It also gave an interaction score (4H1845-bA) of -1.43, an interaction score (4H1446-bA) of -0.956 and an interaction score (4H2610-bA) of -0.708. The interaction score (4H2667-bA) was -0.912, the interaction score (4H687-bA) was -0.0949 and the interaction score (4H797-bA) was -0.836. For the same binder, the interaction score (4H4001-bA) was -0.513, the interaction score (4H568-bA) was -1.77 and the interaction score (4H883-bA) was -1.53. For the same binder, the interaction score (4H967-bA) was -1.41, the interaction score (4H1369-bA) was -0.294 and the interaction score (4H72-bA) was -1.2. For the same binder, the interaction score (4H462-bA) was -0.339, the interaction score (4H3606-bA) was 2.35 and the interaction score (4H2697-bA) was -0.782. The interaction score (4H3782-bA) was -0.939 and the interaction score (4H570-bN) was 0.413.

B2: P10A-bA (peptide)
chain: DKNAQLKQENAELEQKIAELKWKIAQLKQ
Work on B2 yielded an interaction score (P11A-bA) of 0.99, an interaction score (P7A-bA) of 1.04 and an interaction score (P5A-bA) of 0.318. It also gave an interaction score (P6A-bA) of -0.543, an interaction score (P1A-bA) of 0.776 and an interaction score (P3A-bA) of 0.562. The interaction score (P4A-bA) was 0.592, the interaction score (P8A-bA) was -0.165 and the interaction score (P12A-bA) was 0.511. For the same binder, the interaction score (P2A-bA) was -0.362.

B3: P11A-bA (peptide)
chain: DENAQLEQEIAELEQEIAELEWKNAQLKQ
In the case of B3, the interaction score (P11A-bA) is reported as -1.39, the interaction score (P9A-bA) is reported as -0.585 and the interaction score (P7A-bA) is reported as -1.28. It also gave an interaction score (P5A-bA) of 0.849, an interaction score (P6A-bA) of 0.118 and an interaction score (P1A-bA) of 0.307. For the same binder, the interaction score (P3A-bA) was -0.656, the interaction score (P4A-bA) was 1.83 and the interaction score (P8A-bA) was -0.166. The interaction score (P12A-bA) was 1.91 and the interaction score (P2A-bA) was 1.07.
